In patent US20130089893A1:

Tests used:
[1] = biological target: heat-aggregated IgG (HAGG); assay: cell-based or functional assay
[2] = biological target: human IgG monomer (Sandoglobulin, Novartis) (human); assay: BIAcore equilibrium binding over immobilised IgG (Sandoglobulin)
[3] = biological target: dimer-IgG (Wright et al., 1980); assay: flow cytometry: inhibition of dimer-IgG binding to human neutrophils
[4] = biological target: heat-aggregated IgG (HAGG); assay: flow cytometry: inhibition of HAGG binding to human FcγRIIb on IIA1.6 cells
[5] = biological target: heat-aggregated IgG (HAGG); assay: BIAcore equilibrium binding over immobilised HAGG; two-binding site model, KD1
[6] = biological target: heat-aggregated IgG (HAGG); assay: BIAcore equilibrium binding over immobilised HAGG; two-binding site model, KD2
[7] = biological target: heat-aggregated IgG (HAGG); assay: BIAcore equilibrium binding over immobilised HAGG; KD1 against the monomer's KD
[8] = biological target: human IgG monomer (Sandoglobulin, Novartis) (human); assay: BIAcore equilibrium binding over immobilised human IgG monomer; two-binding site model, KD1
[9] = biological target: human IgG monomer (Sandoglobulin, Novartis) (human); assay: BIAcore equilibrium binding over immobilised human IgG monomer; two-binding site model, KD2
[10] = biological target: dimer-IgG (Wright et al., 1980); assay: flow cytometry: inhibition of dimer-IgG binding to neutrophils from two different individuals
[11] = biological target: human IgG monomer (Sandoglobulin, Novartis) (human); assay: BIAcore equilibrium binding over immobilised IgG (Sandoglobulin), rounded value of the discussion
[12] = biological target: dimer-IgG (Wright et al., 1980); assay: flow cytometry, inhibition of dimer-IgG binding to human neutrophils (volunteer V1, Fcγ receptors m8) by purified rsFcγRIIa dimer
[13] = biological target: heat-aggregated IgG (HAGG); assay: BIAcore equilibrium binding, receptor injected over immobilised HAGG; single-binding site
[14] = biological target: human IgG monomer (Sandoglobulin, Novartis) (human); assay: BIAcore equilibrium binding, receptor injected over immobilised human IgG monomer (Sandoglobulin); single-binding site
[15] = biological target: ovalbumin-anti-ovalbumin immune complexes (OVA ICs); assay: cell-based or functional assay

IC50, HAGG-induced CD62P upregulation on human platelets [1] [µg/mL] | fold potency against rsFcγRIIa monomer, HAGG-induced platelet activation [1] [fold] | fold greater avidity than the monomeric receptor [2] [fold] | IC50 [3] [µg/mL] | fold more active than rsFcγRIIa monomer [3] [fold] | IC50 [4] [µg/mL] | fold more potent than the monomer protein [4] [fold] | Kd [5] [nM] | Kd [6] [nM] | fold lesser KD than monomeric rsFcγRIIa [7] [fold] | Kd [8] [nM] | Kd [9] [nM] | IC50 [10] [µg/mL] | Kd [11] [nM] | IC50 [12] [µg/mL] | Kd [13] [nM] | Kd [14] [nM] | IC50, TNF-α release from MC/9 cells induced by OVA ICs [15] [µg/mL] | Substance
3.9 | 5 | 300 | 1.1 | 10 | 0.0039 | > 500 | 2.73 | 99 | 300 | 3.2 | 100 | 0.9 to 1.1 | 3 | 0.9 | – | – | – | recombinant soluble FcγRIIa dimer (rsFcγRIIa dimer), head to tail homodimer construct of FIG. 1 (from UniProt P12318 34-215) (receptor)
– | – | – | 10.5 | – | – | – | – | – | – | – | – | – | 1000 | – | 1050 | 1700 | – | recombinant soluble FcγRIIa monomer (rsFcγRIIa monomer), expressed from pBAR426 in HEK 293E cells (from UniProt P12318 34-217) (receptor)
20.9 | – | – | – | – | 2.08 | – | – | – | – | – | – | – | – | – | – | – | 17.7 | rsFcγRIIa monomer (R&D Systems, Cat #1330-CD/CF) (from UniProt P12318 36-218) (receptor)
